Patent US20030199438A1, “Method for identification of proteins from intracellular bacteria” (priority 2001, published 2003)
“Also recorded” adds a separate entry of the source.

B1: DT9: C. trachomatis D protein spot identified as CT610 (lower row) (protein)
chain: MNFLDQLDLIIQNKHMLEHTFYVKWSKGELTKEQLQAYAKDYYLHIKAFPKYLSAIHSRCDDLEARKLLLDNLMDEENGYPNHIDLWKQFVFALGVTPEELEAHEPSEAAKAKVATFMRWCTGDSLAAGVAALYSYESQIPRIAREKIRGLTEYFGFSNPEDYAYFTEHEEADVRHAREEKALIEMLLKDDADKVLEASQEVTQSLYGFLDSFLDPGTCCSCHQSY
B2: DT11: C. trachomatis D protein spot identified as CT610 (lower row) (protein)
chain: B1 chain
B3: DT10: C. trachomatis D protein spot identified as CT610 (lower row) (protein)
chain: B1 chain
B4: DT7: C. trachomatis D protein spot identified as CT610 (upper row) (protein)
chain: B1 chain
B5: CT858: C. trachomatis 67 kDa protein, fragments DT4 (C-terminal) and DT48 (N-terminal) (protein)
chain: MKMNRIWLLLLTFSSAIHSPVQGESLVCKNALQDLSFLEHLLQVKYAPKTWKEQYLGWDLVQSSVSAQQKLRTQENPSTSFCQQVLADFIGGLNDFHAGVTFFAIESAYLPYTVQKSSDGRFYFVDIMTFSSEIRVGDELLEVDGAPVQDVLATLYGSNHKGTAAEESAALRTLFSRMASLGHKVPSGRTTLKIRRPFGTTREVRVKWRYVPEGVGDLATIAPSIRAPQLQKSMRSFFPKKDDAFHRSSSLFYSPMVPHFWAELRNHYATSGLKSGYNIGSTDGFLPVIGPVIWESEGLFRAYISSVTDGDGKSHKVGFLRIPTYSWQDMEDFDPSGPPPWEEFAKIIQVFSSNTEALIIDQTNNPGGSVLYLYALLSMLTDRPLELPKHRMILTQDEVVDALDWLTLLENVDTNVESRLALGDNMEGYTVDLQVAEYLKSFGRQVLNCWSKGDIELSTPIPLFGFEKIHPHPRVQYSKPICVLINEQDFSCADFFPVVLKDNDRALIVGTRTAGAGGFVFNVQFPNRTGIKTCSLTGSLAVREHGAFIENIGVEPHIDLPFTANDIRYKGYSEYLDKVKKLVCQLINNDGTIILAEDGSF
B6: DT48: C. trachomatis D protein spot, N-terminal fragment of CT858 (protein)
chain: IHSPVQGESLVCKNALQDLSFLEHLLQVKYAPKTWKEQYLGWDLVQSSVSAQQKLRTQENPSTSFCQQVLADFIGGLNDFHAGVTFFAIESAYLPYTVQKSSDGRFYFVDIMTFSSEIRVGDELLEVDGAPVQDVLATLYGSNHKGTAAEESAALRTLFSRMASLGHKVPSGRTTLKIRRPFGTTREVRVKWRYVPEGVGDLATIAPSIRAPQLQKSM
B7: DT8: novel 7.2 kDa C. trachomatis specific protein, SEQ ID NO:1, not annotated in genome (protein, listed as Chlamydia trachomatis)
chain: MQHTIMLSLENDNDKLASMMDRVVAASSSILSASKDSESNRQFTISKAPDKEAPCRVSYVAASALSE
B8: DT4: C. trachomatis D protein spot, C-terminal fragment of CT858 (protein)
chain: GYNIGSTDGFLPVIGPVIWESEGLFRAYISSVTDGDGKSHKVGFLRIPTYSWQDMEDFDPSGPPPWEEFAKIIQVFSSNTEALIIDQTNNPGGSVLYLYALLSMLTDRPLELPKHRMILTQDEVVDALDWLTLLENVDTNVESRLALGDNMEGYTVDLQVAEYLKSFGRQVLNCWSKGDIELSTPIPLFGFEKIHPHPRVQYSKPICVLINEQDFSCADFFPVVLKDNDRALIVGTRTAGAGGFVFNVQFPNRTGIKTCSLTGSLAVREHGAFIENIGVEPHIDLPFTANDIRYKGYSEYLDKVKKLVCQLINNDGTIILAEDGSF

System: host cell proteasome
Assay: Pulse chase studies in combination with proteasome inhibitors (2D-PAGE)
Type: cell-based, C. trachomatis D infected cells
Design: key to Affected by MG115 / Affected by MG132: +: turnover times is prolonged by treatment with different proteasome inhibitors during labelling and chase
Details: labelled 22-24 h.p.i., chased 24-28 h.p.i. with MG132 (10-100 μM; 20 μM in FIG. 6)
Procedure: (§1) To label chlamydial proteins for two hour periods, infected cell cultures were incubated in a medium containing RPMI 1640, […] gentamycin, 40 μg/ml cycloheximide, 100 μCi/ml [35S]-methionine/cysteine (Promix, Amersham Pharmacia Biotech, Uppsala, Sweden) as described previously (Shaw et al., 1999,2000) [18.] [19.]. After labelling the labelling medium was changed to normal growth medium following two washes in normal growth medium and the infected cells were harvested at different points in time after labelling. Similarly, labelled EB proteins were obtained by allowing the Chlamydia to grow until 72 h.p.i. after the two hour labelling periods. The labelled EB were then harvested and purified using two consecutive steps of density gradient ultracentrifugation essentially as described for C. trachomatis in (Schacter and Wyrick, 1994) [22.]and for C. pneumoniae (Knudsen et al. 1999 [17.]). Proteins in the EB preparation and pulse chase preparation were labelled at the same intervals as proteins from the whole cell lysate preparation to facilitate correct 2D-PAGE protein profile comparison.
Cell permeable proteasome inhibitors are added to the infected cell cultures during the labelling and chase period and the turnover time of proteins compared to that observed for labelling/chase without proteasome inhibitors added. Proteins were labelled in the presence or absence of 10-100 μM of the proteasome inhibitor MG-132 from 22-24 h.p.i. The labelling medium was then replaced with growth medium with or without MG132 after two washes in normal growth medium and chased from 24 h.p.i. to 28 h.p.i. Cell lysates were run on 2D-PAGE(IPG) and compared to controls without MG-132. and to gels with proteins harvested immediately after labelling (FIGS. 6A, B and C).
The invention includes the use of several other proteasome inhibitors (e.g. MG115, MG262, PSI and lactocystein), which inhibit different parts of the catalytic activity of the proteasome, which may elucidate other proteins that are degraded in the proteasome (Table IV).

| Molecule | level on chased+MG132 gels compared to controls |
| --- | --- |
| B1 | significantly greater; also recorded: higher; also recorded: significantly increased |
| B2 | significantly greater; also recorded: higher; also recorded: significantly increased |
| B3 | significantly greater; also recorded: higher; also recorded: significantly increased |
| B4 | not significantly affected |

Same assay, conditions: proteasome inhibitors added during the chase period

| Molecule | turnover time upon addition of proteasome inhibitors |
| --- | --- |
| B1 | prolonged |
| B2 | prolonged |
| B3 | prolonged |

Same assay, conditions: turnover time of C. trachomatis D protein; inhibitor during labelling and chase

| Molecule | Affected by MG115 | Affected by MG132 |
| --- | --- | --- |
| B1 | + | + |
| B2 | + | + |
| B3 | + | + |

System: C. trachomatis D infected cell cultures
Assay: Pulse chase studies of candidates for secreted proteins (2D-PAGE)
Type: cell-based
Details: not given
Procedure: as §1
In order to estimate the time in which the identified candidate proteins could be present inside infected cells, the invention provides a series of pulse chase studies. In the following examples infected cell cultures were [35S]-labelled from 22-24 hours. After the labelling period the medium was changed to normal RPMI growth medium without [35S]-methionine and cells were harvested at different times after labelling.

| Molecule | turnover time in pulse chase studies |
| --- | --- |
| B5 | long |
| B6 | long |
| B7 | short |
| B1 | short |
| B2 | short |
| B3 | short |
| B4 | short |
| B8 | long |

Same assay, conditions: labelled 22-24 h.p.i., chased

| Molecule | turnover time (time present after synthesis) |
| --- | --- |
| B7 | < 6 h |

System: host cell proteasome
Assay: Immunoblotting with PAb255 against CT610 of MG132 treated infected cells
Type: cell-based, C. trachomatis D infected cells
Details: MG132 for 6 hours prior to harvesting at 30 h.p.i.
Procedure: In order to confirm that the PAbs recognized the correct vaccine candidates and to visualize potential post translational modifications or processing, 2D-PAGE immunoblotting were performed. 500 μg unlabelled and 2×10^6 cpm labelled C. trachomatis D or C. pneumoniae protein from whole cell lysates was separated by 2D-PAGE, and proteins were electroblotted on to PVDF membranes. Immunostaining was carried out using a 1/5001/1000 dilution of the PAbs in a buffer containing 150 mM NaCl (or in high salt, 400 mM), 20 mM Tris, 0.2% w/v gelatin, 0.05% v/v Tween 20 (Bio-Rad) and 2% v/v normal goat serum (Dako, Glostrup Denmark).
The secondary antibody used was alkaline phosphatase-conjugated goat anti-rabbit IgG (Bio-Rad) diluted 1/2000 in antibody buffer. Blots were stained with 5-bromo-4-chloro-3-indolylphosphate toluidium (BCIP)/nitroblue tetrazolium (NBT) (Bio-Rad) until a clear reaction was detected. Immunoblots were computer scanned and subsequently exposed to X-ray films for approximately 8 days. Melanie II Software was used in order to compare immunostained proteins with their [35S]-labelled counterparts.
DT7 was identified as CT610 and was located just above DT9, DT10, DT11 and DT12 (FIG. 6A). IMB with PAb255 against CT610 on 2D-gel blots (FIG. 7C1) of whole cell lysates clearly reacted with two rows of spots, one row representing DT7 and the other row representing DT9, DT10, DT11 and DT12. CT610 is therefore present in different isoforms presumably due to different posttranslational modification and processing.
IMB with PAb255 was performed on ordinary SDS-PAGE PVDF blots with protein from whole cell lysates treated for six hours in the presence or absence of MG132, respectively.

| Molecule | abundance on 2D-gel immunoblot with PAb255 after MG132 treatment |
| --- | --- |
| B1 | clear relative increase; also recorded: clearly increased |
| B2 | clearly increased |
| B3 | clear relative increase; also recorded: clearly increased |

Same assay, conditions: MG132 for 6 hours prior to harvesting at 30 h.p.i.; listed as DT111

| Molecule | abundance on 2D-gel immunoblot with PAb255 after MG132 treatment |
| --- | --- |
| B2 | clear relative increase |

Same assay, conditions: six hours with or without MG132 (50 μM), harvested 30 h.p.i.

| Molecule | level of band on SDS-PAGE immunoblot with PAb255, MG132 treated vs untreated |
| --- | --- |
| B4 | not significantly altered |
